T1: factor H binding protein (fHbp) variant 1.1, recombinant (Neisseria meningitidis MC58, fHbp v1.1)
T1 construct: also called fHbp v1.1; fHbp v1; source: E. coli BL21(DE3), purified (Ni-NTA, SEC when necessary); not shown: His6, C-terminal, kept
T1 chain: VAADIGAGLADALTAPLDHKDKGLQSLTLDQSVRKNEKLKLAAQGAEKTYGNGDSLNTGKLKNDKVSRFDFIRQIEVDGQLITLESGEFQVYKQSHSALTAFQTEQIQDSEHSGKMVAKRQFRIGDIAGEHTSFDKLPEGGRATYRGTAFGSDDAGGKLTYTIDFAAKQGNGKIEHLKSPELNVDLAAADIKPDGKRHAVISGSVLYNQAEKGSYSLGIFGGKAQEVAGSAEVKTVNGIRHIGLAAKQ

B1: human anti-fHbp mAb 5F12 (antibody, V domains shown)
VH: EVQLVESGGDLVKPGGSLRLSCAASGFTFSNYTMNWVRQAPGKGLEWVSSITSSSSFKYYADSVKGRFTISRDNAKNSVFLQMNSLRAEDTAIYYCARRIDSSDQDWFYYYGMDVWGLGTTVTVSS
VL: QSVLTQPPSVSAAPGQRVTISCSGSSSNIGDNYISWYQQLPGTAPKLLIYDNDQRPSGTPDRFSASKSGTSATLGVTGLQTGDEADYYCGTWDSSLNAPVFGSGTKVTVL
notes: IgG1; source: Expi293, transient transfection, purified (protein G Sepharose)
B2: human anti-fHbp mAb 2C8 (antibody, V domains shown)
VH: QVQLVQSGAEVKKPGSSVKVSCKASGGTVINYPISWVRQVPGQGLEWMGRLVPLFGTPNYGQKFQGRITITADKSTSAAYMELIGLKSEDTAVYYCARGDTAMAPFDYWGHGTLVTVSS
VL: QLVLTQPPSVSVAPGKTATITCGGNNVGGKTVHWYQQKPGQAPVLVMSYDSDRPSGIPERFSGSNSGNTATLTISRVEAEDEADYYCQVWHGNDDHWVFGGGTKLTVL
notes: as for B1
B3: human anti-fHbp mAb 2G1 (antibody, V domains shown)
VH: QVQLVESGGDLVKPGGSLRLSCVASGFTFSSYTMNWVRQAPGKGLEWVSSITSSSSFTYYADSVKGRFIISRDNAKNSLSLQMNNLRVEDTATYYCARRKDSSDYDWYYYYGMDVWGLGTTVTVSS
VL: QSVLTQPPSVSAAPGQKVTISCSGSSSNIGDNYMSWYQQIPGTAPKLLIFDNDQRPSGIPDRFSASKSGTSATLDITGFQTGDEADYYCGTWDSGLSAPVFGGGTKLTVL
notes: as for B1
B4: human anti-fHbp mAb 4F9 (antibody, V domains shown)
VH: QVQLVQSGGGLVKPGGSLRLSCAASGFPFSSYYMSWIRQAPGKGLEWVSDINNSGNVKEYADFVKGRLTISRDNVKNSMYLHMNSLRVEDTAVYYCARNRGRFDVWGQGTLVTVSA
VL: EIVMTQSPGTLSLSPGETATLSCRASQMISSPFLAWYQQRRGQAPRLLIYGASTRATDTPDRFRGSGSGTDFILTISRLEPEDFAVYYCQHYDDSPFTFGQGTKLEIK
notes: as for B1
B5: human anti-fHbp mAb 4B3 (IgG1) (antibody, V domains shown)
VH: QVQLVQSGGGLVKPGGSLRLSCAASGFPFSSYYMSWIRQAPGKGLEWVSDINNSGNVKEYADFVKGRLTISRDNVKNSMYLHMNSLRVEDTAVYYCARNRGRFDVWGQGTLVTVSA
VL: EIVMTQSPGTLSLSPGETATLSCRASQMISSPFLAWYQQRRGQAPRLLIYGASTRATDTPDRFRGSGSGTDFILTISRLEPEDFAVYYCQYYDDSPFTFGQGTKLEIK
notes: as for B1
B6: human anti-fHbp mAb 3G7 (antibody, V domains shown)
VH: EVQLLQSGGGLVKPGGSLRLSCAASGFPFSSYYMSWIRQAPGKGLEWVSDINNSGNVKEYADFVKGRLTISRDNVKNSMYLHMNSLRVEDTAVYYCARNRGRFDVWGQGTLVTVSA
VL: EIVLTQSPGTLSLSPGETATLSCRASQMISSPFLAWYQQRRGQAPRLLIYGASTRATDTPDRFRGSGSGTDFILTISRLEPEDFAVYYCQYYDDSPFTFGQGTKLEIK
notes: as for B1
B7: human anti-fHbp mAb 5C6 (antibody, V domains shown)
VH: EVQLLESGGGLVQPGGSLRLSCAASGFTFSSYAMSWVRQTPGKGLEWVSAISGSGGSTYYADSVQGRFTISRDNSKNTLYLQINSLRAEDTAVYYCAKDPGFVLSSGWYYFDYWGQGTLVTVSS
VL: not shown
notes: as for B1
B8: human anti-fHbp mAb 1D1 (antibody, V domains shown)
VH: QVQLVGSGGGLVKPGGSLRLSCAASGFTFSSYTMNWVRQAPGKGLEWVSSISSSSGYIYYADSLKGRFTISRDDAKNSLFLQMNSLRAEDTAVYFCARDKVLPAPPGFYGLDVWGPGTTVTVSS
VL: QSVVTQPPSVSAAPGQKVTISCSGSSSNIEDNFVSWYQQLPGTAPKLLIYDNNQRPSGIPDRFSGSKSGTSATLGITGLQTGDEADYYCATWDNSLSARVFGGGTKLTVL
notes: as for B1
B9: human anti-fHbp mAb 3F1 (antibody, V domains shown)
VH: EVHLVESGGGLVKPGGSLRLSCAASGFTFSSYTMNWVRQAPGKGLEWVSSISSSSGYIYYADSLKGRFTISRDNAKNSLFLQMNSLRAEDTAVYFCARDKVLPAPPGFYGLDVWGPGTTVTVSS
VL: QSVVTQPPSVSAAPGQKVTISCSGSSSNIEDNFVSWYQQLPGTAPKLLIYDNNQRPSGIPDRFSGSKSGTSATLGITGLQTGDEADYYCATWDNSLSARVFGGGTKLTVL
notes: as for B1

Experiments:
[1] = target: T2, factor H binding protein (fHbp) variant 3.28, recombinant (Neisseria meningitidis M1239, fHbp v3.28, UniProt Q19KF7, strain); assay: SPR; settings: both partners purified
T2 construct: also called fHbp v3.28; fHbp v3; source: E. coli BL21(DE3), purified (Ni-NTA, SEC when necessary)

[2] = target: T1, factor H binding protein (fHbp) variant …; assay: SPR; settings: both partners purified
[3] = target: T3, factor H binding protein (fHbp) variant 2.16, recombinant (Neisseria meningitidis 961-5945, UniProt Q6VS19, strain); assay: SPR; settings: both partners purified
T3 construct: also called fHbp v2.16; fHbp v2; source: E. coli BL21(DE3), purified (Ni-NTA, SEC when necessary)

[4] = target: T4, native fHbp v2.16 on live N. meningitidis strain UK104 (M08-240104) (Neisseria meningitidis, UniProt Q6VS19); assay: flow cytometry on cells; settings: one partner purified
T4 construct: source: endogenous, on live N. meningitidis M08-240104 (UK104)

[5] = target: T1, factor H binding protein (fHbp) variant …; assay: BLI; Octet 384 Red, 30 C; mAb 4B3 captured on Anti-Human Fc biosensors, wild type and mutant fHbp in solution, 150 nM to 1 nM, in 1 x PBS, 1% (w/v) BSA; triplicate; settings: both partners purified
[6] = target: T4, native fHbp v2.16 on live N. …; assay: flow cytometry on cells; live meningococci (MC58, UK104, UK320) in mid-log phase incubated with mAbs at 10 ug/ml; detected with FITC anti-human IgG; settings: one partner purified

Binder	Kd [1]	Kd [2]	Kd [3]	binding result [4]	Kd [5]	binding result [6]
B1	1.75 nM	1.01 nM	2.75 nM	–	–	–
B2	0.46 nM	0.34 nM	0.0525 nM	–	–	–
B3	1.75 nM	1.08 nM	1.7 nM	–	–	–
B4	0.24 nM	0.077 nM	0.0285 nM	binds	–	–
B5	0.633 nM	0.328 nM	0.029 nM	binds	1.7 nM	–
B6	0.68 nM	0.344 nM	0.0526 nM	binds	–	–
B7	2.03 nM	1.08 nM	1.7 nM	–	–	binds
B8	1.72 nM	0.893 nM	2.61 nM	–	–	–
B9	1.8 nM	1.04 nM	11.3 nM	–	–	–

Reference: paper PMC7556464, “4CMenB vaccine induces elite cross-protective human antibodies that compete with human factor H for binding to meningococcal fHbp” (PLoS Pathogens, 2020)
